Test results reported in paper PMC7469494 (Autophagy, 2019).

Columns and labels:
Vac8[40–515]^A51R = molecular target: T1, Vac8[40–515]^A51R (S. cerevisiae, UniProt P39968 40-515, A51R); test: SEC
T1 sequence (looked up): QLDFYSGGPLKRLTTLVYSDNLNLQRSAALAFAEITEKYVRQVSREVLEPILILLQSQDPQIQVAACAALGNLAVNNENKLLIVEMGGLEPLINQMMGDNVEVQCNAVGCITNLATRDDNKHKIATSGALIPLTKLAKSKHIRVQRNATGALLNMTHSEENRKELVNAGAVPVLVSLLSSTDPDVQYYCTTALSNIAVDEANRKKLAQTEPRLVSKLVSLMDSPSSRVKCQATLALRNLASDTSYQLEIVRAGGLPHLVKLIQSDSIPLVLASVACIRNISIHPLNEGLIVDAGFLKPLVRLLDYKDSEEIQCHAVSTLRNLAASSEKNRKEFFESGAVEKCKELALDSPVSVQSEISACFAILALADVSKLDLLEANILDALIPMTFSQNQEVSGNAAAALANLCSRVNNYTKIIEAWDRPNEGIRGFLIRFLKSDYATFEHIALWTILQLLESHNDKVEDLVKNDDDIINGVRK

Vac8[40–515] = molecular target: T2, Vac8[40–515] (S. cerevisiae, UniProt P39968 40-515); test: SEC
T2 sequence (looked up): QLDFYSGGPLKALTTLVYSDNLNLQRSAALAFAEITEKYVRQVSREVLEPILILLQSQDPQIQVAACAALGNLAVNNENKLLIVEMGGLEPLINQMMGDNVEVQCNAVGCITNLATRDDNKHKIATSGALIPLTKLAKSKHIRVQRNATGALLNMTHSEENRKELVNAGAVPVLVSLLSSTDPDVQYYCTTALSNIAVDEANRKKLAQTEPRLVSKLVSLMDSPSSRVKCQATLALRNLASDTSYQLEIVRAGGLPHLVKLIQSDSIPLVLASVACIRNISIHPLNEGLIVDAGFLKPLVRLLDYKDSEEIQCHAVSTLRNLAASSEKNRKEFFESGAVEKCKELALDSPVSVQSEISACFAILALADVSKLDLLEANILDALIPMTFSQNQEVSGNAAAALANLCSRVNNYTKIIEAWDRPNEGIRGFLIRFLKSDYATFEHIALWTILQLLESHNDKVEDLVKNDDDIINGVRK

Vac8[40–515]^N62R = molecular target: T3, Vac8[40–515]^N62R (S. cerevisiae, UniProt P39968 40-515, N62R); test: SEC
T3 sequence (looked up): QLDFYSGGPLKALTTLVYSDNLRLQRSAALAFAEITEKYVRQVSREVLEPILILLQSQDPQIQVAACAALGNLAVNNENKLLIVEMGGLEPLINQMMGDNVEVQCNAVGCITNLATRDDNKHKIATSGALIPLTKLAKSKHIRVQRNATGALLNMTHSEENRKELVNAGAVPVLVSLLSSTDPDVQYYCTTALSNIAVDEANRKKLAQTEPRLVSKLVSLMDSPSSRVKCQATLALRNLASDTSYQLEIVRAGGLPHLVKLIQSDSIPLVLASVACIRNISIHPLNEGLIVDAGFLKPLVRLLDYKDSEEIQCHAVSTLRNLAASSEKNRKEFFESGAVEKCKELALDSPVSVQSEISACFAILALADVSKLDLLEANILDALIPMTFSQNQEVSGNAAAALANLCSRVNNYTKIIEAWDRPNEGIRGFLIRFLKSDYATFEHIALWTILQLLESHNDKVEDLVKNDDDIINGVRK

Vac8[40–515]^L55R = molecular target: T4, Vac8[40–515]^L55R (S. cerevisiae, UniProt P39968 40-515, L55R); test: SEC
T4 sequence (looked up): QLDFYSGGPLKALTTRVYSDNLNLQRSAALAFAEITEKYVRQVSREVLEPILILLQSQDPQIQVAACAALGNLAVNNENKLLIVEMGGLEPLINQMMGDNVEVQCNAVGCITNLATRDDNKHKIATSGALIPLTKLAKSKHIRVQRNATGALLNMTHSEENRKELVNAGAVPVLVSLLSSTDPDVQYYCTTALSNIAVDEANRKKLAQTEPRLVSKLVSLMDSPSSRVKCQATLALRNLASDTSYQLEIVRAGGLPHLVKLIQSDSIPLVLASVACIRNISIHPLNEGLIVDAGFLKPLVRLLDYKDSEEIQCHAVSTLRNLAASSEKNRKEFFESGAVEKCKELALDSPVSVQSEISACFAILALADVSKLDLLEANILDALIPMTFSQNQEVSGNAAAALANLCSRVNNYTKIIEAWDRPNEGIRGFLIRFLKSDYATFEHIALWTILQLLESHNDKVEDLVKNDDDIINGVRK

Vac8[40–578] = molecular target: T5, Vac8[40–578] (S. cerevisiae, UniProt P39968 40-578); test: SAXS
T5 sequence (looked up): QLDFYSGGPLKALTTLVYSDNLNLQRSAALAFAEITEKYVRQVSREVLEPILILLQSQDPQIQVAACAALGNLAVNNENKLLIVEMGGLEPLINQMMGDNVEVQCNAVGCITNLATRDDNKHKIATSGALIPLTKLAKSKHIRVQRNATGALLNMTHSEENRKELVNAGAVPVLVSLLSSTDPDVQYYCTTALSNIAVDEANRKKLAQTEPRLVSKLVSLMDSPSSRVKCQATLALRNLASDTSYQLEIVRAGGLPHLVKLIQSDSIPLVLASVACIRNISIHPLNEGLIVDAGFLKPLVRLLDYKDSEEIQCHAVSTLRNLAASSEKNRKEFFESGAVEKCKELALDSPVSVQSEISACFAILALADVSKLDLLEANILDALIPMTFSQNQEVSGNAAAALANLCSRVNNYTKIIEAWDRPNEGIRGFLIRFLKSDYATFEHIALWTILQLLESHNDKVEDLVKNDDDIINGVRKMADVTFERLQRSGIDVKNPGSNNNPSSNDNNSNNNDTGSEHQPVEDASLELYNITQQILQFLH

Measured: binding result

B1: tAtg13 (Atg13 construct comprising residues 567–695) (domain or fragment, S. cerevisiae, UniProt Q06628 567-695, looked up)
chain: GGNSSTSALNSRRNSLDKSSNKQGMSGLPPIFGGESTSYHHDNKIQKYNQLGVEEDDDDENDRLLNQMGNSATKFKSSISPRSIDSISSSFIKSRIPIRQPYHYSQPTTAPFQAQAKFHKPANKLIDNG
binds: Vac8[40–515]^A51R | Vac8[40–515] | Vac8[40–515]^N62R | Vac8[40–515]^L55R | Vac8[40–578]
